B1: BBSome complex member BBS5 (Homo sapiens), Q8N3I7 (parent)
chain: MSVLDALWEDRDVRFDLSAQQMKTRPGEVLIDCLDSIEDTKGNNGDRGRLLVTNLRILWHSLALSRVNVSVGYNCILNITTRTANSKLRGQTEALYILTKCNSTRFEFIFTNLVPGSPRLFTSVMAVHRAYETSKMYRDFKLRSALIQNKQLRLLPQEHVYDKINGVWNLSSDQGNLGTFFITNVRIVWHANMNDSFNVSIPYLQIRSIKIRDSKFGLALVIESSQQSGGYVLGFKIDPVEKLQESVKEINSLHKVYSASPIFGVDYEMEEKPQPLEALTVEQIQDDVEIDSDGHTDAFVAYFADGNKQQDREPVFSEELGLAIEKLKDGFTLQGLWEVMS
partner: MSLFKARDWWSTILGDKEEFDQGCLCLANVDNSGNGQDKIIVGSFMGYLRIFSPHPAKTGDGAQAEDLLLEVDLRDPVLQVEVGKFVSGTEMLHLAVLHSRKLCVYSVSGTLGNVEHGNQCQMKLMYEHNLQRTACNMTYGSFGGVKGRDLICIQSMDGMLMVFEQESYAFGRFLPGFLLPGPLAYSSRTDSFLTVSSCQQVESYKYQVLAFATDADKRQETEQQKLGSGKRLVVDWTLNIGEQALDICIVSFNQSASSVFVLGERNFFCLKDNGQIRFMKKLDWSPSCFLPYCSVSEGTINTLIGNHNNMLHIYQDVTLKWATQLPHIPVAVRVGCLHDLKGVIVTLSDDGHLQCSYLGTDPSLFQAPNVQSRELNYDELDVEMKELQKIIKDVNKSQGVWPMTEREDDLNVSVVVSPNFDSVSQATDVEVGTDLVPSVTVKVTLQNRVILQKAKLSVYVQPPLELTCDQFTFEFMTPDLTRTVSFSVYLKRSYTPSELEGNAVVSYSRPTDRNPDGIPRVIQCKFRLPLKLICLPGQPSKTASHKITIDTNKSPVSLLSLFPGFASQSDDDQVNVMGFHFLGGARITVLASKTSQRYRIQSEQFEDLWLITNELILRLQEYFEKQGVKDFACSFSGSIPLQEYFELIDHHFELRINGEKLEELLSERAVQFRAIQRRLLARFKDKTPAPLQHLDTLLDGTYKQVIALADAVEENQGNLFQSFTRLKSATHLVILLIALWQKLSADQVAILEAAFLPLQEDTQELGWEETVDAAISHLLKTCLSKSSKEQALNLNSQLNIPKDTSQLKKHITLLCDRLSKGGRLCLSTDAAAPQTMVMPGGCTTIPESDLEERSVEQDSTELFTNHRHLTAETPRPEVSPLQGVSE

Variants of: B1
Settings: with pthb1_human BBS9, Q3SYG4

Effect of a mutation on the interaction, with no effect:
MSVLDALWEDRDVRFDLSAQQMKTRPGEVLIDCLDSIEDTKGNNGDRGRLLVTNLRILWHSLALSRVNVSVGYNCILNITTRTANSKLRGQTEALYILTKCNSTRFEFIFTNLVPGSPRLFTSVMAVHRAYETSKMYRDFKLRSALIQNKQLRLLPQEHVYDKINGVWNLSSDQGNLGTFFITNVRIVWHANENDSFNVSIPYLQIRSIKIRDSKFGLALVIESSQQSGGYVLGFKIDPVEKLQESVKEINSLHKVYSASPIFGVDYEMEEKPQPLEALTVEQIQDDVEIDSDGHTDAFVAYFADGNKQQDREPVFSEELGLAIEKLKDGFTLQGLWEVMS [M193E]
MSVLDALWEDRDVRFDLSAQQMKTRPGEVLIDCLDSIEDTKGNNGDRGRLLVTNLRILWHSLALSRVNVSVGYNCILNITTRTANSKLRGQTEALYILTKCNSTRFEFIFTNLVPGSPRLFTSVMAVHRAYETSKMYRDFKLRSALIQNKQLRLLPQEHVYDKINGVWNLSSDQGNLGTFFITNVRIVWHANKNDSFNVSIPYLQIRSIKIRDSKFGLALVIESSQQSGGYVLGFKIDPVEKLQESVKEINSLHKVYSASPIFGVDYEMEEKPQPLEALTVEQIQDDVEIDSDGHTDAFVAYFADGNKQQDREPVFSEELGLAIEKLKDGFTLQGLWEVMS [M193K]
MSVLDALWEDRDVRFDLSAQQMKTRPGEVLIDCLDSIEDTKGNNGDRGRLLVTNLRILWHSLALSRVNVSVGYNCILNITTRTANSKLRGQTEALYILTKCNSTRFEFIFTNLVPGSPRLFTSVMAVHRAYETSKMYRDFKLRSALIQNKQLRLLPQEHVYDKINGVWNLSSDQGNLGTFFITNVRIVWHANMADSFNVSIPYLQIRSIKIRDSKFGLALVIESSQQSGGYVLGFKIDPVEKLQESVKEINSLHKVYSASPIFGVDYEMEEKPQPLEALTVEQIQDDVEIDSDGHTDAFVAYFADGNKQQDREPVFSEELGLAIEKLKDGFTLQGLWEVMS [N194A]
MSVLDALWEDRDVRFDLSAQQMKTRPGEVLIDCLDSIEDTKGNNGDRGRLLVTNLRILWHSLALSRVNVSVGYNCILNITTRTANSKLRGQTEALYILTKCNSTRFEFIFTNLVPGSPRLFTSVMAVHRAYETSKMYRDFKLRSALIQNKQLRLLPQEHVYDKINGVWNLSSDQGNLGTFFITNVRIVWHANMEDSFNVSIPYLQIRSIKIRDSKFGLALVIESSQQSGGYVLGFKIDPVEKLQESVKEINSLHKVYSASPIFGVDYEMEEKPQPLEALTVEQIQDDVEIDSDGHTDAFVAYFADGNKQQDREPVFSEELGLAIEKLKDGFTLQGLWEVMS [N194E]
MSVLDALWEDRDVRFDLSAQQMKTRPGEVLIDCLDSIEDTKGNNGDRGRLLVTNLRILWHSLALSRVNVSVGYNCILNITTRTANSKLRGQTEALYILTKCNSTRFEFIFTNLVPGSPRLFTSVMAVHRAYETSKMYRDFKLRSALIQNKQLRLLPQEHVYDKINGVWNLSSDQGNLGTFFITNVRIVWHANMKDSFNVSIPYLQIRSIKIRDSKFGLALVIESSQQSGGYVLGFKIDPVEKLQESVKEINSLHKVYSASPIFGVDYEMEEKPQPLEALTVEQIQDDVEIDSDGHTDAFVAYFADGNKQQDREPVFSEELGLAIEKLKDGFTLQGLWEVMS [N194K]
MSVLDALWEDRDVRFDLSAQQMKTRPGEVLIDCLDSIEDTKGNNGDRGRLLVTNLRILWHSLALSRVNVSVGYNCILNITTRTANSKLRGQTEALYILTKCNSTRFEFIFTNLVPGSPRLFTSVMAVHRAYETSKMYRDFKLRSALIQNKQLRLLPQEHVYDKINGVWNLSSDQGNLGTFFITNVRIVWHANMNASFNVSIPYLQIRSIKIRDSKFGLALVIESSQQSGGYVLGFKIDPVEKLQESVKEINSLHKVYSASPIFGVDYEMEEKPQPLEALTVEQIQDDVEIDSDGHTDAFVAYFADGNKQQDREPVFSEELGLAIEKLKDGFTLQGLWEVMS [D195A]
MSVLDALWEDRDVRFDLSAQQMKTRPGEVLIDCLDSIEDTKGNNGDRGRLLVTNLRILWHSLALSRVNVSVGYNCILNITTRTANSKLRGQTEALYILTKCNSTRFEFIFTNLVPGSPRLFTSVMAVHRAYETSKMYRDFKLRSALIQNKQLRLLPQEHVYDKINGVWNLSSDQGNLGTFFITNVRIVWHANMNESFNVSIPYLQIRSIKIRDSKFGLALVIESSQQSGGYVLGFKIDPVEKLQESVKEINSLHKVYSASPIFGVDYEMEEKPQPLEALTVEQIQDDVEIDSDGHTDAFVAYFADGNKQQDREPVFSEELGLAIEKLKDGFTLQGLWEVMS [D195E]
MSVLDALWEDRDVRFDLSAQQMKTRPGEVLIDCLDSIEDTKGNNGDRGRLLVTNLRILWHSLALSRVNVSVGYNCILNITTRTANSKLRGQTEALYILTKCNSTRFEFIFTNLVPGSPRLFTSVMAVHRAYETSKMYRDFKLRSALIQNKQLRLLPQEHVYDKINGVWNLSSDQGNLGTFFITNVRIVWHANMNKSFNVSIPYLQIRSIKIRDSKFGLALVIESSQQSGGYVLGFKIDPVEKLQESVKEINSLHKVYSASPIFGVDYEMEEKPQPLEALTVEQIQDDVEIDSDGHTDAFVAYFADGNKQQDREPVFSEELGLAIEKLKDGFTLQGLWEVMS [D195K]
MSVLDALWEDRDVRFDLSAQQMKTRPGEVLIDCLDSIEDTKGNNGDRGRLLVTNLRILWHSLALSRVNVSVGYNCILNITTRTANSKLRGQTEALYILTKCNSTRFEFIFTNLVPGSPRLFTSVMAVHRAYETSKMYRDFKLRSALIQNKQLRLLPQEHVYDKINGVWNLSSDQGNLGTFFITNVRIVWHANMNDAFNVSIPYLQIRSIKIRDSKFGLALVIESSQQSGGYVLGFKIDPVEKLQESVKEINSLHKVYSASPIFGVDYEMEEKPQPLEALTVEQIQDDVEIDSDGHTDAFVAYFADGNKQQDREPVFSEELGLAIEKLKDGFTLQGLWEVMS [S196A]

From IntAct's records for PubMed 29039417
